This is an account of results in article doi:10.1101/2023.03.10.532066.

Data set [1] deals with T1, GLK2 (Arabidopsis thaliana, UniProt Q9FFH0 1-386).
T1 sequence: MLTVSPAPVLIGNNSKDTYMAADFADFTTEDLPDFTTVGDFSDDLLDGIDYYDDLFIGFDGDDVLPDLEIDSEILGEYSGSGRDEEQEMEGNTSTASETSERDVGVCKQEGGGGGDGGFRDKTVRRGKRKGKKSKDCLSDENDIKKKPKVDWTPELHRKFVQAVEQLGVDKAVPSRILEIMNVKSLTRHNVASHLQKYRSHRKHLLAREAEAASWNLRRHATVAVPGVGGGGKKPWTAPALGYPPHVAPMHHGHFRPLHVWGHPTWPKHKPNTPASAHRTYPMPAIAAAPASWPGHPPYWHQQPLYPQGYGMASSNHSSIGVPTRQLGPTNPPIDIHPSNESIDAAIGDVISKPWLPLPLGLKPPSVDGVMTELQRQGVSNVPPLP
In words: EMSA. For orientation: In EMSA bound probe runs differently from free probe, usually more slowly.

In data set [2] the target is T1, GLK2. In words: competition.

Numbering of substitutions follows the chain as printed.

B1: TTG1 probe (pTTG1-A-EMSA) (dsDNA)
DNA 1: TCTTTTTTGTCTTCTTATGTGATATCAAATTTTATGATCT
DNA 2: AGATCATAAAATTTGATATCACATAAGAAGACAAAAAAGA
In the case of B1, the binding result in data set [1] was “binds”.

B2: pTTG1m (mpTTG1-A-EMSA) (dsDNA)
DNA 1: B1 DNA 1 with G21A, T23A, T25A, C26A
DNA 2: B1 DNA 2 with G15T, A16T, A18T, C20T
Take B2: the binding result in data set [1] is “no binding”.

B3: pDFR-p1m (mpDFR-D-EMSA) (dsDNA)
DNA 1: ATACCAACACTAAAAAAAAAAAAAAAAAAACATAGAAGAAGAGAGCCAC
DNA 2: GTGGCTCTCTTCTTCTATGTTTTTTTTTTTTTTTTTTTAGTGTTGGTAT
Turning to B3, in data set [2], the binding result is “no binding”.
